Article PMC11213948 (2024)

Molecular target: G5_(1–1508)-FLAG
Experiment: pull-down
Settings: HEK293 cell lysates; western blot with anti-FLAG and anti-Xpress; n = 2; read off a plot

In the case of “Xpress-His G5_(1–1508) mutant A951E [not stated] / G5_(1–1508)-FLAG [not stated] chain 1 A951E”, the response (relative intensity (PD/In)) is reported as 1.3.
